Experimental data: US20230220042A1 (SHANGHAI JIAO TONG UNIVERSITY SCHOOL OF MEDICINE, published 2023)

T1: Biotin-FcγRIIB (human FcγRIIB, Sino Biological) (human, UniProt P31994 43-217, limits assumed, biotin-labeled)
T1 construct: Used at 1 µg/ml with Streptavidin-APC for flow cytometry and sorting; also called CD32b
T1 sequence (looked up): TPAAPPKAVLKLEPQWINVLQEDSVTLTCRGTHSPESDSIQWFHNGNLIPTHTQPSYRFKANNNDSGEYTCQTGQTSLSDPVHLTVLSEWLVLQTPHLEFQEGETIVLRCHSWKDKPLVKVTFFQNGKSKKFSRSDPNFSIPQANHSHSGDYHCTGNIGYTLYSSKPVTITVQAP

B1: human IgG2 anti-mouse CD40 surface displayed antibody, P271C (antibody, name in EU numbering)
light chain (with the P2A rest): DTVLTQSPALAVSPGERVTISCRASDSVSTLMHWYQQKPGQQPKLLIYLASHLESGVPARFSGSGSGTDFTLTIDPVEADDTATYYCQQSWNDPWTFGGGTKLELKRTVAAPSVFIFPPSDEQLKSGTASVVCLLNNFYPREAKVQWKVDNALQSGNSQESVTEQDSKDSTYSLSSTLTLSKADYEKHKVYACEVTHQGLSSPVTKSFNRGECGSGATNFSLLKQAGDVEENPG
heavy chain: EVQLVESDGGLVQPGRSLKLPCAASGFTFSDYYMAWVRQAPTKGLEWVASISYDGSSTYYRDSVKGRFTISRDNAKSTLYLQMDSLRSEDTATYYCGRHSSYFDYWGQGVMVTVSSASTKGPSVFPLAPCSRSTSESTAALGCLVKDYFPEPVTVSWNSGALTSGVHTFPAVLQSSGLYSLSSVVTVPSSNFGTQTYTCNVDHKPSNTKVDKTVERKCCVECPPCPAPPVAGPSVFLFPPKPKDTLMISRTPEVTCVVVDVSHEDCEVQFNWYVDGVEVHNAKTKPREEQFNSTFRVVSVLTVVHQDWLNGKEYKCKVSNKGLPAPIEKTISKTKGQPREPQVYTLPPSREEMTKNQVSLTCLVKGFYPSDIAVEWESNGQPENNYKTTPPMLDSDGSFFLYSKLTVDKSRWQQGNVFSCSVMHEALHNHYTQKSLSLSPGKLEPPPSTVSNMATVAVLVVLGAAIVTGAVVAFVMKMRRRNTGGKGGDYALAPGSQTSDLSLPDCKVMVHDPHSLA
notes: m1 with this Fc mutation (Eu numbering); copies: 2 + 2
B2: human IgG2 anti-mouse CD40 surface displayed antibody, S267E/D270H (antibody, name in EU numbering)
light chain (with the P2A rest): DTVLTQSPALAVSPGERVTISCRASDSVSTLMHWYQQKPGQQPKLLIYLASHLESGVPARFSGSGSGTDFTLTIDPVEADDTATYYCQQSWNDPWTFGGGTKLELKRTVAAPSVFIFPPSDEQLKSGTASVVCLLNNFYPREAKVQWKVDNALQSGNSQESVTEQDSKDSTYSLSSTLTLSKADYEKHKVYACEVTHQGLSSPVTKSFNRGECGSGATNFSLLKQAGDVEENPG
heavy chain: EVQLVESDGGLVQPGRSLKLPCAASGFTFSDYYMAWVRQAPTKGLEWVASISYDGSSTYYRDSVKGRFTISRDNAKSTLYLQMDSLRSEDTATYYCGRHSSYFDYWGQGVMVTVSSASTKGPSVFPLAPCSRSTSESTAALGCLVKDYFPEPVTVSWNSGALTSGVHTFPAVLQSSGLYSLSSVVTVPSSNFGTQTYTCNVDHKPSNTKVDKTVERKCCVECPPCPAPPVAGPSVFLFPPKPKDTLMISRTPEVTCVVVDVEHEHPEVQFNWYVDGVEVHNAKTKPREEQFNSTFRVVSVLTVVHQDWLNGKEYKCKVSNKGLPAPIEKTISKTKGQPREPQVYTLPPSREEMTKNQVSLTCLVKGFYPSDIAVEWESNGQPENNYKTTPPMLDSDGSFFLYSKLTVDKSRWQQGNVFSCSVMHEALHNHYTQKSLSLSPGKLEPPPSTVSNMATVAVLVVLGAAIVTGAVVAFVMKMRRRNTGGKGGDYALAPGSQTSDLSLPDCKVMVHDPHSLA
notes: m1 with these Fc mutations (Eu numbering); copies: 2 + 2
B3: human IgG2 anti-mouse CD40 surface displayed antibody, S267A/P271G (antibody, name in EU numbering)
light chain (with the P2A rest): DTVLTQSPALAVSPGERVTISCRASDSVSTLMHWYQQKPGQQPKLLIYLASHLESGVPARFSGSGSGTDFTLTIDPVEADDTATYYCQQSWNDPWTFGGGTKLELKRTVAAPSVFIFPPSDEQLKSGTASVVCLLNNFYPREAKVQWKVDNALQSGNSQESVTEQDSKDSTYSLSSTLTLSKADYEKHKVYACEVTHQGLSSPVTKSFNRGECGSGATNFSLLKQAGDVEENPG
heavy chain: EVQLVESDGGLVQPGRSLKLPCAASGFTFSDYYMAWVRQAPTKGLEWVASISYDGSSTYYRDSVKGRFTISRDNAKSTLYLQMDSLRSEDTATYYCGRHSSYFDYWGQGVMVTVSSASTKGPSVFPLAPCSRSTSESTAALGCLVKDYFPEPVTVSWNSGALTSGVHTFPAVLQSSGLYSLSSVVTVPSSNFGTQTYTCNVDHKPSNTKVDKTVERKCCVECPPCPAPPVAGPSVFLFPPKPKDTLMISRTPEVTCVVVDVAHEDGEVQFNWYVDGVEVHNAKTKPREEQFNSTFRVVSVLTVVHQDWLNGKEYKCKVSNKGLPAPIEKTISKTKGQPREPQVYTLPPSREEMTKNQVSLTCLVKGFYPSDIAVEWESNGQPENNYKTTPPMLDSDGSFFLYSKLTVDKSRWQQGNVFSCSVMHEALHNHYTQKSLSLSPGKLEPPPSTVSNMATVAVLVVLGAAIVTGAVVAFVMKMRRRNTGGKGGDYALAPGSQTSDLSLPDCKVMVHDPHSLA
notes: as for B2
B4: human IgG2 anti-mouse CD40 surface displayed antibody, S267E/P271C (antibody, name in EU numbering)
light chain (with the P2A rest): DTVLTQSPALAVSPGERVTISCRASDSVSTLMHWYQQKPGQQPKLLIYLASHLESGVPARFSGSGSGTDFTLTIDPVEADDTATYYCQQSWNDPWTFGGGTKLELKRTVAAPSVFIFPPSDEQLKSGTASVVCLLNNFYPREAKVQWKVDNALQSGNSQESVTEQDSKDSTYSLSSTLTLSKADYEKHKVYACEVTHQGLSSPVTKSFNRGECGSGATNFSLLKQAGDVEENPG
heavy chain: EVQLVESDGGLVQPGRSLKLPCAASGFTFSDYYMAWVRQAPTKGLEWVASISYDGSSTYYRDSVKGRFTISRDNAKSTLYLQMDSLRSEDTATYYCGRHSSYFDYWGQGVMVTVSSASTKGPSVFPLAPCSRSTSESTAALGCLVKDYFPEPVTVSWNSGALTSGVHTFPAVLQSSGLYSLSSVVTVPSSNFGTQTYTCNVDHKPSNTKVDKTVERKCCVECPPCPAPPVAGPSVFLFPPKPKDTLMISRTPEVTCVVVDVEHEDCEVQFNWYVDGVEVHNAKTKPREEQFNSTFRVVSVLTVVHQDWLNGKEYKCKVSNKGLPAPIEKTISKTKGQPREPQVYTLPPSREEMTKNQVSLTCLVKGFYPSDIAVEWESNGQPENNYKTTPPMLDSDGSFFLYSKLTVDKSRWQQGNVFSCSVMHEALHNHYTQKSLSLSPGKLEPPPSTVSNMATVAVLVVLGAAIVTGAVVAFVMKMRRRNTGGKGGDYALAPGSQTSDLSLPDCKVMVHDPHSLA
notes: as for B2
B5: human IgG2 anti-mouse CD40 surface displayed antibody, S267A (antibody, name in EU numbering)
light chain (with the P2A rest): DTVLTQSPALAVSPGERVTISCRASDSVSTLMHWYQQKPGQQPKLLIYLASHLESGVPARFSGSGSGTDFTLTIDPVEADDTATYYCQQSWNDPWTFGGGTKLELKRTVAAPSVFIFPPSDEQLKSGTASVVCLLNNFYPREAKVQWKVDNALQSGNSQESVTEQDSKDSTYSLSSTLTLSKADYEKHKVYACEVTHQGLSSPVTKSFNRGECGSGATNFSLLKQAGDVEENPG
heavy chain: EVQLVESDGGLVQPGRSLKLPCAASGFTFSDYYMAWVRQAPTKGLEWVASISYDGSSTYYRDSVKGRFTISRDNAKSTLYLQMDSLRSEDTATYYCGRHSSYFDYWGQGVMVTVSSASTKGPSVFPLAPCSRSTSESTAALGCLVKDYFPEPVTVSWNSGALTSGVHTFPAVLQSSGLYSLSSVVTVPSSNFGTQTYTCNVDHKPSNTKVDKTVERKCCVECPPCPAPPVAGPSVFLFPPKPKDTLMISRTPEVTCVVVDVAHEDPEVQFNWYVDGVEVHNAKTKPREEQFNSTFRVVSVLTVVHQDWLNGKEYKCKVSNKGLPAPIEKTISKTKGQPREPQVYTLPPSREEMTKNQVSLTCLVKGFYPSDIAVEWESNGQPENNYKTTPPMLDSDGSFFLYSKLTVDKSRWQQGNVFSCSVMHEALHNHYTQKSLSLSPGKLEPPPSTVSNMATVAVLVVLGAAIVTGAVVAFVMKMRRRNTGGKGGDYALAPGSQTSDLSLPDCKVMVHDPHSLA
notes: as for B1
B6: human IgG2 anti-mouse CD40 surface displayed antibody, S267D (antibody, name in EU numbering)
light chain (with the P2A rest): DTVLTQSPALAVSPGERVTISCRASDSVSTLMHWYQQKPGQQPKLLIYLASHLESGVPARFSGSGSGTDFTLTIDPVEADDTATYYCQQSWNDPWTFGGGTKLELKRTVAAPSVFIFPPSDEQLKSGTASVVCLLNNFYPREAKVQWKVDNALQSGNSQESVTEQDSKDSTYSLSSTLTLSKADYEKHKVYACEVTHQGLSSPVTKSFNRGECGSGATNFSLLKQAGDVEENPG
heavy chain: EVQLVESDGGLVQPGRSLKLPCAASGFTFSDYYMAWVRQAPTKGLEWVASISYDGSSTYYRDSVKGRFTISRDNAKSTLYLQMDSLRSEDTATYYCGRHSSYFDYWGQGVMVTVSSASTKGPSVFPLAPCSRSTSESTAALGCLVKDYFPEPVTVSWNSGALTSGVHTFPAVLQSSGLYSLSSVVTVPSSNFGTQTYTCNVDHKPSNTKVDKTVERKCCVECPPCPAPPVAGPSVFLFPPKPKDTLMISRTPEVTCVVVDVDHEDPEVQFNWYVDGVEVHNAKTKPREEQFNSTFRVVSVLTVVHQDWLNGKEYKCKVSNKGLPAPIEKTISKTKGQPREPQVYTLPPSREEMTKNQVSLTCLVKGFYPSDIAVEWESNGQPENNYKTTPPMLDSDGSFFLYSKLTVDKSRWQQGNVFSCSVMHEALHNHYTQKSLSLSPGKLEPPPSTVSNMATVAVLVVLGAAIVTGAVVAFVMKMRRRNTGGKGGDYALAPGSQTSDLSLPDCKVMVHDPHSLA
notes: as for B1
B7: human IgG2 anti-mouse CD40 surface displayed antibody, S267A/P271C (antibody, name in EU numbering)
light chain (with the P2A rest): DTVLTQSPALAVSPGERVTISCRASDSVSTLMHWYQQKPGQQPKLLIYLASHLESGVPARFSGSGSGTDFTLTIDPVEADDTATYYCQQSWNDPWTFGGGTKLELKRTVAAPSVFIFPPSDEQLKSGTASVVCLLNNFYPREAKVQWKVDNALQSGNSQESVTEQDSKDSTYSLSSTLTLSKADYEKHKVYACEVTHQGLSSPVTKSFNRGECGSGATNFSLLKQAGDVEENPG
heavy chain: EVQLVESDGGLVQPGRSLKLPCAASGFTFSDYYMAWVRQAPTKGLEWVASISYDGSSTYYRDSVKGRFTISRDNAKSTLYLQMDSLRSEDTATYYCGRHSSYFDYWGQGVMVTVSSASTKGPSVFPLAPCSRSTSESTAALGCLVKDYFPEPVTVSWNSGALTSGVHTFPAVLQSSGLYSLSSVVTVPSSNFGTQTYTCNVDHKPSNTKVDKTVERKCCVECPPCPAPPVAGPSVFLFPPKPKDTLMISRTPEVTCVVVDVAHEDCEVQFNWYVDGVEVHNAKTKPREEQFNSTFRVVSVLTVVHQDWLNGKEYKCKVSNKGLPAPIEKTISKTKGQPREPQVYTLPPSREEMTKNQVSLTCLVKGFYPSDIAVEWESNGQPENNYKTTPPMLDSDGSFFLYSKLTVDKSRWQQGNVFSCSVMHEALHNHYTQKSLSLSPGKLEPPPSTVSNMATVAVLVVLGAAIVTGAVVAFVMKMRRRNTGGKGGDYALAPGSQTSDLSLPDCKVMVHDPHSLA
notes: as for B2

Each binder was assayed against T1, Biotin-FcγRIIB (human FcγRIIB, Sino …) (assay: NGS after FACS sort of 3T3-displayed Library2 for biotin-FcγRIIB binding).
In the case of B1, the “Enrichment factor (percentage after sorting/percentage before sorting)” value is reported as 17.1 and the “Increased factor (enrichment factor/wild-type enrichment factor)” value is reported as 29.9.
In the case of B2, the “Enrichment factor (percentage after sorting/percentage before sorting)” value is reported as 42.7 and the “Increased factor (enrichment factor/wild-type enrichment factor)” value is reported as 74.3.
With B3 the “Enrichment factor (percentage after sorting/percentage before sorting)” value was 5.27 and the “Increased factor (enrichment factor/wild-type enrichment factor)” value was 9.19.
In the case of B4, the “Enrichment factor (percentage after sorting/percentage before sorting)” value is reported as 1000 and the “Increased factor (enrichment factor/wild-type enrichment factor)” value is reported as 1740.
With B5 the “Enrichment factor (percentage after sorting/percentage before sorting)” value was 3.17 and the “Increased factor (enrichment factor/wild-type enrichment factor)” value was 5.52.
In the case of B6, the “Enrichment factor (percentage after sorting/percentage before sorting)” value is reported as 2.11 and the “Increased factor (enrichment factor/wild-type enrichment factor)” value is reported as 3.67.
In the case of B7, the “Enrichment factor (percentage after sorting/percentage before sorting)” value is reported as 37.4 and the “Increased factor (enrichment factor/wild-type enrichment factor)” value is reported as 65.1.
